Changes are numbered by the printed parent chain. Where two headings read alike, the source gives them in different places.
Assays:
[1] = biological target: T1, monkey thyroid-stimulating hormone receptor (TSHR) (monkey, UniProt A0A2K5X226 21-764); assay: flow cytometry (FACS), 293 cells overexpressing monkey TSHR
T1 construct: Overexpressed on 293 cells; also called monkey TSHR

[2] = biological target: T2, mouse thyroid-stimulating hormone receptor (TSHR) (mouse, UniProt P47750 22-764); assay: flow cytometry (FACS), 293 cells overexpressing mouse TSHR
T2 construct: whole, on cells; Overexpressed on 293 cells; also called mouse TSHR; murine TSHR
T2 sequence (P47750 22-764): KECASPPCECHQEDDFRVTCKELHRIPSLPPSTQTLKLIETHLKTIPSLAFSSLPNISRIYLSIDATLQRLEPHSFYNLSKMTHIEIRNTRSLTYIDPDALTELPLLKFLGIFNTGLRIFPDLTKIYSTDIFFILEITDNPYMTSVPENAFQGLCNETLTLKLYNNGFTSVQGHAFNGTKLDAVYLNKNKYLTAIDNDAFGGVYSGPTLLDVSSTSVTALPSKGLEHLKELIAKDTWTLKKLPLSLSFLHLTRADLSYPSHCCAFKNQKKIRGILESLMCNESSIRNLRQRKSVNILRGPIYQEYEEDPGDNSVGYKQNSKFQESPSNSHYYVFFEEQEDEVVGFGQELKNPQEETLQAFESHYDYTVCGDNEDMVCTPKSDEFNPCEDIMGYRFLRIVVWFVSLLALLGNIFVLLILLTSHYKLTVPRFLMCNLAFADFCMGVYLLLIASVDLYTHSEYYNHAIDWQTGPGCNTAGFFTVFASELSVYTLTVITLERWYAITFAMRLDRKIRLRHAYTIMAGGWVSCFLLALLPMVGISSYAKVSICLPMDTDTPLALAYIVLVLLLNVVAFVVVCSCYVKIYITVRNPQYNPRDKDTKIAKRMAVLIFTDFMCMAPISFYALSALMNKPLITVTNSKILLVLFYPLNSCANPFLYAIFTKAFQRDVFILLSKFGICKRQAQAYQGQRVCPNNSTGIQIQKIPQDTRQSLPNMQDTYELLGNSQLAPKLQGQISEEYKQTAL

[3] = biological target: T3, human thyroid-stimulating hormone receptor (TSHR) (human, UniProt P16473 21-764); assay: flow cytometry (FACS), 293 cells overexpressing human TSHR
T3 construct: whole, on cells; Overexpressed on 293 cells; also called human TSHR
T3 sequence (P16473 21-764): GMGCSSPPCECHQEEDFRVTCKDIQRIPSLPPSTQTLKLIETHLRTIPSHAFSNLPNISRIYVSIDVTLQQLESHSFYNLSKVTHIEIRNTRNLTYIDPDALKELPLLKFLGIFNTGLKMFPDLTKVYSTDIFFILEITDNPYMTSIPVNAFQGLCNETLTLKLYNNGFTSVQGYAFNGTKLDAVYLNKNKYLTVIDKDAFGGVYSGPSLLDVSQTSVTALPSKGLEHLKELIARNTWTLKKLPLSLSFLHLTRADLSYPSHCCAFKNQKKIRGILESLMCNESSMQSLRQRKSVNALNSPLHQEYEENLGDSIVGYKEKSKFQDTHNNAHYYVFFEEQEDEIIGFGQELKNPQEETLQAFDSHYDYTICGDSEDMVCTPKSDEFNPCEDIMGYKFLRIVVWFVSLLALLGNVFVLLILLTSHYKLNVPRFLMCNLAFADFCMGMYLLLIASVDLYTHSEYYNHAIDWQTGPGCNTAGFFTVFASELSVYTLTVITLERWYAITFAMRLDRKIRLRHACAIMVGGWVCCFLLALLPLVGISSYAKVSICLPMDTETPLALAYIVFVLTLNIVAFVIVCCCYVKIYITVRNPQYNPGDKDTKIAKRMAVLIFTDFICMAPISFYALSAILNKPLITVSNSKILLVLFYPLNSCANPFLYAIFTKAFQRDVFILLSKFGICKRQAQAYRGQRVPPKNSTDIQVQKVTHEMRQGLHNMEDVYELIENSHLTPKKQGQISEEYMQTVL

[4] = biological target: T1, monkey thyroid-stimulating hormone …; assay: flow cytometry (FACS), 293 cells overexpressing monkey TSHR; remark: listed apart in the source
[5] = biological target: T2, mouse thyroid-stimulating hormone …; assay: flow cytometry (FACS), 293 cells overexpressing mouse TSHR; remark: listed apart in the source
[6] = biological target: T3, human thyroid-stimulating hormone …; assay: flow cytometry (FACS), 293 cells overexpressing human TSHR; remark: listed apart in the source
[7] = biological target: T3, human thyroid-stimulating hormone …; assay: as above; remark: listed apart in the source
[8] = biological target: T3, human thyroid-stimulating hormone …; assay: cell-based or functional assay
[9] = biological target: T2, mouse thyroid-stimulating hormone …; assay: flow cytometry (FACS), 293 cells overexpressing mouse TSHR; remark: listed apart in the source
[10] = biological target: T1, monkey thyroid-stimulating hormone …; assay: flow cytometry (FACS), 293 cells overexpressing monkey TSHR; remark: listed apart in the source
[11] = biological target: T4, hFcRn-Avi (Biosystems, FCM-H82W7) (human (printed as hFcRn), UniProt P55899 24-297; P61769 21-119, biotin on the Avi tag is implied by capture on an SA chip); assay: SPR (Biacore 8K+), hFcRn-Avi captured on SA chip, antibody in flow, pH 6.0, 25 C, steady-state fit
T4 construct: Bought reagent
T4 sequence (P55899 24-297 limits assumed, chain 1 of 2): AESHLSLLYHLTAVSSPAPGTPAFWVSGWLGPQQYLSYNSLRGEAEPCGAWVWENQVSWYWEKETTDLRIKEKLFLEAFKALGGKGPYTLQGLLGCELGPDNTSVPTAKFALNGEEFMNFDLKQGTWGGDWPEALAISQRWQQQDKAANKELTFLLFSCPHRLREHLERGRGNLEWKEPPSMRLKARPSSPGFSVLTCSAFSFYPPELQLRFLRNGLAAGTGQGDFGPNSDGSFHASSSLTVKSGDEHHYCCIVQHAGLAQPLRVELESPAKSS
T4 sequence (P61769 21-119 limits assumed, chain 2 of 2): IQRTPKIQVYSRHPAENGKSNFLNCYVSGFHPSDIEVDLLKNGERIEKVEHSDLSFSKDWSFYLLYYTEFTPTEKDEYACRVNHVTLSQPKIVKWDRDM

[12] = biological target: T1, monkey thyroid-stimulating hormone …; assay: flow cytometry (FACS), 293 cells overexpressing monkey TSHR; remark: listed apart in the source
[13] = biological target: T2, mouse thyroid-stimulating hormone …; assay: flow cytometry (FACS), 293 cells overexpressing mouse TSHR; remark: listed apart in the source
[14] = biological target: T3, human thyroid-stimulating hormone …; assay: cell-based or functional assay; remark: listed apart in the source

T1 sequence (A0A2K5X226 entry or part of it limits assumed, form in doubt): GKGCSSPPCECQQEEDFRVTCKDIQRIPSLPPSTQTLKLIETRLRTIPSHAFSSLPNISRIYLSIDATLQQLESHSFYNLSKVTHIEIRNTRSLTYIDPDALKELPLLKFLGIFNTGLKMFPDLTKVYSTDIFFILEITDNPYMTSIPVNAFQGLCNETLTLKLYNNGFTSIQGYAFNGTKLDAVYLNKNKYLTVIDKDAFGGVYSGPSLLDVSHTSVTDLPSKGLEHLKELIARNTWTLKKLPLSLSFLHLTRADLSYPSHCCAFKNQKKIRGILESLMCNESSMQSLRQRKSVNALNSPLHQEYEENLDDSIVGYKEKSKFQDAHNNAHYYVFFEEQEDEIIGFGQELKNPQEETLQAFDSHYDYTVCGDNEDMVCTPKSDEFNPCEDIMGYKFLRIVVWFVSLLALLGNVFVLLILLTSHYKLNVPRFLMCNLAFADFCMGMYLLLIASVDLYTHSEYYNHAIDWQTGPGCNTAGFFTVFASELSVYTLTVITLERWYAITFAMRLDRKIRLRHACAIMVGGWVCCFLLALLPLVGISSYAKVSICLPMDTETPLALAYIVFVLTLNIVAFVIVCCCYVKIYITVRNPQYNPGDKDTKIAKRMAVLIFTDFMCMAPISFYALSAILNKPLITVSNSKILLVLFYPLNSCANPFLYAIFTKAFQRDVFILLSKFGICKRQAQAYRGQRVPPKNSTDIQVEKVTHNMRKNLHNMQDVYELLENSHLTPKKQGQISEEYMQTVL

B1: humanized antibody cAb21-VH2-VL2 (antibody, human IgG4 S228P, kappa, V domains shown)
VH: QVQLVQSGAEVKKPGASVKVSCKASGYTFSNYWMQWVRQAPGQGLEWIGEIDPADSYTAYSQKFKGRATMTVDTSTSTVYMELSSLRSEDTAVYYCARRNLLRSGDYWGQGTLVTVSS
VL: AIQLTQSPSSLSASVGDRVTITCSASSGITYIHWYQQKPGKAPKRWIYDSSKLASGVPSRFSGSGSGTDYTLTISSLQPEDFATYYCQQWSGNPPTFGQGTKLEIKR
notes: Humanized from mAb021
EC50 [1]: 9.3 nM | Maximum binding signal [1]: 313000 | EC50 [2]: 11.9 nM | Maximum binding signal [2]: 175000 | EC50 [3]: 10.4 nM | Maximum binding signal [3]: 402000

B2: humanized antibody cAb21-VH1-VL3 (antibody, human IgG4 S228P, kappa, V domains shown)
VH: B1 VH with I48M, A68V, V72R
VL: B1 VL with S59A
notes: Humanized from mAb021
EC50 [1]: 7.8 nM | Maximum binding signal [1]: 308000 | EC50 [2]: 10.4 nM | Maximum binding signal [2]: 185000 | EC50 [3]: 8.7 nM | Maximum binding signal [3]: 398000

B3: humanized antibody cAb12-VH1-QG&S-VL3 (antibody, human IgG4 S228P, kappa, V domains shown)
VH: QVQLVQSGAEVKKPGASVKVSCKASGYTFTDYYMNWVRQAPGQGLEWMGVINPYQGESSNNQKFKGRVTMTRDTSTSTVYMELSSLRSEDTAVYYCARSYGYGYYFDYWGQGTTVTVSS
VL: AIQLTQSPSSLSASVGDRVTITCSATSSVTYMHWYQQKPGKAPKRWIYDTSKLTSGVPPRFSGSGSGTDYTLTISSLQPEDFATYYCQQWSTYPYTFGGGTKLEIKR
notes: Humanized from mAb012
EC50 [1]: 8.1 nM | Maximum binding signal [1]: 269000 | EC50 [2]: 14 nM | Maximum binding signal [2]: 98800 | EC50 [3]: 10.5 nM | Maximum binding signal [3]: 420000

B4: humanized antibody cAb12-VH3-QG&S-VL3 (antibody, human IgG4 S228P, kappa, V domains shown)
VH: B3 VH with R38K, M48I, V68A, R72V, T74K
VL: B3 VL
notes: Humanized from mAb012
EC50 [1]: 9.2 nM | Maximum binding signal [1]: 303000 | EC50 [2]: 15 nM | Maximum binding signal [2]: 135000 | EC50 [3]: 6.5 nM | Maximum binding signal [3]: 445000

B5: murine antibody mAb021 (antibody, V domains shown)
VH: QVQLQQPGAEHVQPGASVKLSCKASGYTFSNYWMQWVRQRPGQGLDWIGEIDPADSYTAYSQKFKGKATLTVDTSSTTAYMQLSSLTSEDSAVYYCARRNLLRSGDYWGQGTSLTVSS
VL: QIVLTQSPAIMSASPGEKVTMTCSASSGITYIHWYQQKSGTSPKRWIYDSSKLASGVPARFSGSGSGTSYSLTISSMEAEDAATYYCQQWSGNPPTFGAGTKLEVK
notes: Murine monoclonal antibody from hybridoma
EC50 [4]: 4.5 nM | Maximum binding signal [4]: 42400 | EC50 [5]: 10.3 nM | Maximum binding signal [5]: 31600 | EC50 [6]: 3.5 nM | Maximum binding signal [6]: 52000

B6: hAb01_G4P_V1 (antibody, human IgG4 S228P, kappa)
heavy: EVQLVESGGGLVKPGGSLRLSCAASGFTLSDYYIYWVRQAPGKGLEWVATISDAVIYTYYADSVKGRFTISRDNAKNSLYLQMNSLRAEDTAVYFCARAYGSSEVMDYWGQGTLVTVSSASTKGPSVFPLAPCSRSTSESTAALGCLVKDYFPEPVTVSWNSGALTSGVHTFPAVLQSSGLYSLSSVVTVPSSSLGTKTYTCNVDHKPSNTKVDKRVESKYGPPCPPCPAPEFLGGPSVFLFPPKPKDTLYITREPEVTCVVVDVSQEDPEVQFNWYVDGVEVHNAKTKPREEQFNSTYRVVSVLTVLHQDWLNGKEYKCKVSNKGLPSSIEKTISKAKGQPREPQVYTLPPSQEEMTKNQVSLTCLVKGFYPSDIAVEWESNGQPENNYKTTPPVLDSDGSFFLYSRLTVDKSRWQEGNVFSCSVMHEALHNHYTQKSLSLSLGK
light: EIVLTQSPATLSLSPGERATLSCSASSSVSYMHWYQQKPGQAPKRWIYDTSKLASGVPARFSGSGSGTDYTLTISSLEPEDFAVYYCQQWSSNPWTFGGGTKLEIKRTVAAPSVFIFPPSDEQLKSGTASVVCLLNNFYPREAKVQWKVDNALQSGNSQESVTEQDSKDSTYSLSSTLTLSKADYEKHKVYACEVTHQGLSSPVTKSFNRGEC
notes: also called hAb01_G4_V1
EC50 [7]: 5.82 nM | Max_MFI [7]: 282000 | IC50 (nM), cAMP in 293-human TSHR cells activated by Tab01 [8]: 2.95 nM | IC50 (nM), cAMP in 293-human TSHR cells activated by Tab02 [8]: 2.74 nM | Maximum inhibition rate (%), cAMP in 293-human TSHR cells activated by Tab01 [8]: 105% | Maximum inhibition rate (%), cAMP in 293-human TSHR cells activated by Tab02 [8]: 100% | EC50 [9]: 2.35 nM | Max_MFI [9]: 138000 | EC50 [10]: 2.77 nM | Max_MFI [10]: 190000 | Kd [11]: 119 nM | Response value (RU) [11]: 73.1 RU

B7: hAb01_G1 (antibody, human IgG1, kappa)
heavy: not shown
light: B6 light
notes: Same variable regions as hAb01_G4P, constant region subtype hIgG1
Kd [11]: 189 nM | Response value (RU) [11]: 60.7 RU

B8: hAb01_G4P_V2 (antibody, human IgG4 S228P, kappa)
heavy: B6 heavy with L234E
light: B6 light
notes: also called hAb01_G4_V2
EC50 [7]: 4.64 nM | Max_MFI [7]: 287000 | IC50 (nM), cAMP in 293-human TSHR cells activated by Tab01 [8]: 4.18 nM | IC50 (nM), cAMP in 293-human TSHR cells activated by Tab02 [8]: 4.38 nM | Maximum inhibition rate (%), cAMP in 293-human TSHR cells activated by Tab01 [8]: 106% | Maximum inhibition rate (%), cAMP in 293-human TSHR cells activated by Tab02 [8]: 100% | EC50 [9]: 2.43 nM | Max_MFI [9]: 135000 | EC50 [10]: 2.94 nM | Max_MFI [10]: 189000 | Kd [11]: 121 nM | Response value (RU) [11]: 73.5 RU

B9: humanized antibody cAb01-VH3-DA-VL2 (antibody, human IgG4 S228P, kappa, V domains shown)
VH: EVQLVESGGGLVKPGGSLRLSCAASGFTLSDYYIYWVRQAPGKRLEWVATISDAVIYTYYADSVKGRFTISRDNAKNSLYLQMNSLRAEDTAVYFCARAYGSSEVMDYWGQGTLVTVSS
VL: EIVLTQSPATLSLSPGERATLSCSASSSVSYMHWYQQKPGQAPRRWIYDTSKLASGIPARFSGSGSGTDYTLTISSLEPEDFAVYYCQQWSSNPWTFGGGTKLEIKR
notes: Humanized from mAb001
EC50 [12]: 2.29 nM | Maximum binding signal [12]: 225000 | EC50 [13]: 2.09 nM | Maximum binding signal [13]: 129000 | IC50(nM), cAMP in 293-human TSHR cells activated by Tab01 (30 nM) [14]: 0.29 nM | IC50(nM), cAMP in 293-human TSHR cells activated by Tab02 (6.5 nM) [14]: 0.23 nM | Inhibition rate (%), cAMP in 293-human TSHR cells activated by Tab01 (30 nM) [14]: 84% | Inhibition rate (%), cAMP in 293-human TSHR cells activated by Tab02 (6.5 nM) [14]: 82.8%

B10: humanized antibody cAb01-VH1-DA-VL2 (antibody, human IgG4 S228P, kappa, V domains shown)
VH: B9 VH with R44G, A49S, F95Y
VL: B9 VL
notes: Humanized from mAb001
EC50 [12]: 2.19 nM | Maximum binding signal [12]: 187000 | EC50 [13]: 2.4 nM | Maximum binding signal [13]: 113000 | IC50(nM), cAMP in 293-human TSHR cells activated by Tab01 (30 nM) [14]: 1.3 nM | IC50(nM), cAMP in 293-human TSHR cells activated by Tab02 (6.5 nM) [14]: 0.91 nM | Inhibition rate (%), cAMP in 293-human TSHR cells activated by Tab01 (30 nM) [14]: 85.6% | Inhibition rate (%), cAMP in 293-human TSHR cells activated by Tab02 (6.5 nM) [14]: 87.4%

B11: murine antibody mAb001 (antibody, V domains shown)
VH: B9 VH with R19K, A40T, G42E, A54G, S78N, N84S, R87K, A88S, V93M, L114S
VL: QIVLTQSPAVLSASPGEKVTMTCSASSSVSYMHWYQQKSGTSPKRWIYDTSKLASGVPARFSGSGSGTSYSLTISSMEAEDAATYYCQQWSSNPWTFGGGTKLEIK
notes: as for B5
EC50 [4]: 0.98 nM | Maximum binding signal [4]: 13600 | EC50 [5]: 2.52 nM | Maximum binding signal [5]: 11800 | EC50 [6]: 1.28 nM | Maximum binding signal [6]: 21000

B12: murine antibody mAb012 (antibody, V domains shown)
VH: EVQLQQSGPVLLKPGASVKMSCKASGYTFTDYYMNWVKQSHGKSLEWIGVINPYNGESSNNQKFKGKATMTVDKSSSTAYMELNSLTSEDSAVYYCARCYGYGYYFDYWGQGTTLSVAS
VL: B11 VL with V10I, L11M, S26T, S30T, A54T, A59P, S92T, N93Y, W95Y
notes: as for B5
EC50 [4]: 2.8 nM | Maximum binding signal [4]: 24400 | EC50 [5]: 8.65 nM | Maximum binding signal [5]: 20800 | EC50 [6]: 4.74 nM | Maximum binding signal [6]: 30000
